Measured values taken from paper doi:10.1101/2025.03.24.644901, “Substrate recognition by human separase” (bioRxiv, 2025).

Target: T1, inactive apo-separase (separase^C2029S) (human, UniProt Q14674 1-2120, C2029S)
T1 construct: human separase, aa 1-2120, catalytic cysteine replaced with serine; AIL1 and the autocleavage sites are intact in this construct; also called apo-separase^C2029S; source: Sf9 (baculovirus), purified (StrepTactin, heparin, Superose 6)
Assay: fluorescence polarisation; FlAsH-labelled MBP-SCC1 fragment as probe, inactive separase added; 25 mM HEPES pH 8.0, 100 mM NaCl, 0.1 mg/ml BSA, 0.01% NP40; 25°C; One Site-Total non-linear fit; three repeats
Settings: both partners purified

T1 sequence (Q14674 whole entry C2029S, the tested form may be a part): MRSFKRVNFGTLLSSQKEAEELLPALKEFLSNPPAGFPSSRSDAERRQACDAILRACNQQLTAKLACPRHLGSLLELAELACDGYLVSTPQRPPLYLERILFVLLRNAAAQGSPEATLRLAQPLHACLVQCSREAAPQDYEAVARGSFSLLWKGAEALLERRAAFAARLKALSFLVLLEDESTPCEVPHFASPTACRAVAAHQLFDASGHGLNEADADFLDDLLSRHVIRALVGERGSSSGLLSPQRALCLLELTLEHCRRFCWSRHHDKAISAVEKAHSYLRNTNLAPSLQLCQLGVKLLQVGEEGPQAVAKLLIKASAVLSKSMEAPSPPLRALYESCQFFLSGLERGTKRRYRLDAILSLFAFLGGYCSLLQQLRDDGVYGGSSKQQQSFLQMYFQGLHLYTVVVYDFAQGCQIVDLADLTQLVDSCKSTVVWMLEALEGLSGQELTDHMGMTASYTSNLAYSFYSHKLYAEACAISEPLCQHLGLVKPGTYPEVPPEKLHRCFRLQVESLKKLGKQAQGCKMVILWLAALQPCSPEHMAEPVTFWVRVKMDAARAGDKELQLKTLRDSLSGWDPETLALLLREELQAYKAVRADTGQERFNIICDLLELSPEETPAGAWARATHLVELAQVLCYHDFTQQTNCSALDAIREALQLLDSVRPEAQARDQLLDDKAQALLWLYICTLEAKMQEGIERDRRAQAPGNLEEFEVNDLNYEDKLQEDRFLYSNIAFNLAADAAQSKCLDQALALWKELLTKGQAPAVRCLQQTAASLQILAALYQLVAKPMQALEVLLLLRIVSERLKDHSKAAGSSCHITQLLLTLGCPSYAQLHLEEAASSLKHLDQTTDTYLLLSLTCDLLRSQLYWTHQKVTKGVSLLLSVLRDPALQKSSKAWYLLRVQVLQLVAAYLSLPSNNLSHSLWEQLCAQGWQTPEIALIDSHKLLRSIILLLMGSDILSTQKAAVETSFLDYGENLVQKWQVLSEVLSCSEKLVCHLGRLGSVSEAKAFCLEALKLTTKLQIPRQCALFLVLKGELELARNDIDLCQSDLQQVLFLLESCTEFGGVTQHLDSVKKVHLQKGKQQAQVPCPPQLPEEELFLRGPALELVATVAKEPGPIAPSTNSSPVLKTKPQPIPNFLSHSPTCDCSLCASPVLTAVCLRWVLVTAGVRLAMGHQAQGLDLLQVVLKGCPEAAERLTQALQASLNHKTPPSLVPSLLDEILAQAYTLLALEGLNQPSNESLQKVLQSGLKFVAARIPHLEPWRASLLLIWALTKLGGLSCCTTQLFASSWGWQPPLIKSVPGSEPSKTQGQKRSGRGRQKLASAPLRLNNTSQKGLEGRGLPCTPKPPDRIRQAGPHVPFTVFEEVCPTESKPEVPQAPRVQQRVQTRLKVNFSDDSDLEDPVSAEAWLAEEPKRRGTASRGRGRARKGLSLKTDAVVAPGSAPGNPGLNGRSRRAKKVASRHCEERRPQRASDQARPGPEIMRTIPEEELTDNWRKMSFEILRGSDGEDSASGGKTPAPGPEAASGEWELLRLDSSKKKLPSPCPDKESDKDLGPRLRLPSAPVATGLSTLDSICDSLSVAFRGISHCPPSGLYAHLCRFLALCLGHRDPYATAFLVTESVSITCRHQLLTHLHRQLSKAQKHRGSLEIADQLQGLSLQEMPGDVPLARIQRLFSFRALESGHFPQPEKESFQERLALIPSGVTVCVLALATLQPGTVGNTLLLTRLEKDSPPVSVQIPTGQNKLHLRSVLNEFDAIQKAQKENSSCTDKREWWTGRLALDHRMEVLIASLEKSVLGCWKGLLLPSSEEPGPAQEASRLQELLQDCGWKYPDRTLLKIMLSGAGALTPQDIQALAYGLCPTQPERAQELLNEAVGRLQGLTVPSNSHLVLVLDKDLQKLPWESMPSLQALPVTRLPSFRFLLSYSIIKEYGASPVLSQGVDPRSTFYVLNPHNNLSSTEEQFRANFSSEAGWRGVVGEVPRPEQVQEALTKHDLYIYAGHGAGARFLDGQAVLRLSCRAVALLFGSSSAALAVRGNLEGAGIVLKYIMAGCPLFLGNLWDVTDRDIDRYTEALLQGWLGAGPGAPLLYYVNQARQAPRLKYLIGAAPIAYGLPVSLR

binding result: binds
B1: MBP-SCC1 (aa 350-550) with C-terminal tetracysteine motif, FlAsH-labelled (domain or fragment, human, UniProt O60216 350-550, looked up)
chain: TLDLAPPTKKLMMWKETGGVEKLFSLPAQPLWNNRLLKLFTRCLTPLVPEDLRKRRKGGEADNLDEFLKEFENPEVPREDQQQQHQQRDVIDEPIIEEPSRLQESVMEASRTNIDESAMPPPPPQGVKRKAGQIDPEPVMPPQQVEQMEIPPVELPPEEPPNICQLIPELELLPEKEKEKEKEKEDDEEEEDEDASGGDQD
modifications: FlAsH-EDT2 fluorescent dye on the C-terminal tetracysteine motif
notes: human SCC1/RAD21, aa 350-550 (holds cleavage site 2, R427); also called SCC1^350–550; SCC1 site 2 (aa 350-550); source: E. coli BL21 (DE3), purified (Hitrap MBP, Superdex 200); not shown: 6xHis-MBP, N-terminal, kept
